Earlier results, collected in patent publication US20060234934A1, “Composition and Method for Selective Cytostasis” (priority 2005, published 2006).

Tested on: human embryonic palatal mesenchymal cells

B1: EGF: Epidermal Growth Factor (protein, UniProt P01133 23-1207, looked up)
Pro-epidermal growth factor: PQHWSCPEGTLAGNGNSTCVGPAPFLIFSHGNSIFRIDTEGTNYEQLVVDAGVSVIMDFHYNEKRIYWVDLERQLLQRVFLNGSRQERVCNIEKNVSGMAINWINEEVIWSNQQEGIITVTDMKGNNSHILLSALKYPANVAVDPVERFIFWSSEVAGSLYRADLDGVGVKALLETSEKITAVSLDVLDKRLFWIQYNREGSNSLICSCDYDGGSVHISKHPTQHNLFAMSLFGDRIFYSTWKMKTIWIANKHTGKDMVRINLHSSFVPLGELKVVHPLAQPKAEDDTWEPEQKLCKLRKGNCSSTVCGQDLQSHLCMCAEGYALSRDRKYCEDVNECAFWNHGCTLGCKNTPGSYYCTCPVGFVLLPDGKRCHQLVSCPRNVSECSHDCVLTSEGPLCFCPEGSVLERDGKTCSGCSSPDNGGCSQLCVPLSPVSWECDCFPGYDLQLDEKSCAASGPQPFLLFANSQDIRHMHFDGTDYGTLLSQQMGMVYALDHDPVENKIYFAHTALKWIERANMDGSQRERLIEEGVDVPEGLAVDWIGRRFYWTDRGKSLIGRSDLNGKRSKIITKENISQPRGIAVHPMAKRLFWTDTGINPRIESSSLQGLGRLVIASSDLIWPSGITIDFLTDKLYWCDAKQSVIEMANLDGSKRRRLTQNDVGHPFAVAVFEDYVWFSDWAMPSVMRVNKRTGKDRVRLQGSMLKPSSLVVVHPLAKPGADPCLYQNGGCEHICKKRLGTAWCSCREGFMKASDGKTCLALDGHQLLAGGEVDLKNQVTPLDILSKTRVSEDNITESQHMLVAEIMVSDQDDCAPVGCSMYARCISEGEDATCQCLKGFAGDGKLCSDIDECEMGVPVCPPASSKCINTEGGYVCRCSEGYQGDGIHCLDIDECQLGEHSCGENASCTNTEGGYTCMCAGRLSEPGLICPDSTPPPHLREDDHHYSVRNSDSECPLSHDGYCLHDGVCMYIEALDKYACNCVVGYIGERCQYRDLKWWELRHAGHGQQQKVIVVAVCVVVLVMLLLLSLWGAHYYRTQKLLSKNPKNPYEESSRDVRSRRPADTEDGMSSCPQPWFVVIKEHQDLKNGGQPVAGEDGQAADGSMQPTSWRQEPQLCGMGTEQGCWIPVSSDKGSCPQVMERSFHMPSYGTQTLEGGVEKPHSLLSANPLWQQRALDPPHQMELTQ
modifications: Pro-epidermal growth factor
stimulation of incorporation of 3[H]-thymidine into newly synthesized DNA: a little more than twofold
